This test deals with Flag-DNAJC5 (secreted) (UniProt Q9H3Z4). The test can be described thus: co-IP; conditioned medium of cells expressing Flag-DNAJC5 and HA-GFP1-10; Flag beads against control Sepharose beads; precipitated and unbound fractions analysed by immunoblotting. In general terms: Immunoblotting shows a protein as a band on a membrane.
Sequence of UniProt Q9H3Z4 (Q9H3Z4 whole entry): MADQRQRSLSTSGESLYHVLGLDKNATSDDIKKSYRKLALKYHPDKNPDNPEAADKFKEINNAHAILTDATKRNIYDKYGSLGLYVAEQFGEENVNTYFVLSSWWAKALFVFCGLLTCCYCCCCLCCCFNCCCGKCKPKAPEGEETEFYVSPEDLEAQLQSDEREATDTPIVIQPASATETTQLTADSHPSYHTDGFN

“HA-GFP1-10 (secreted) (domain or fragment)” displayed a percent co-depleted with Flag-DNAJC5 of over 60%.
